In publication PMC7948508, “Comparison of human poly-N-acetyl-lactosamine synthase structure with GT-A fold glycosyltransferases supports a modular assembly of catalytic subsites” (The Journal of Biological Chemistry, 2020):

Biological target: the molecule itself
Experiment: SEC-MALS; 20 μl at 1 mg/ml on Superdex 75; 25 mM HEPES (pH 7.4), 150 mM NaCl, 0.02% NaN3

B1: catalytic domain of human β-1,3-N-acetylglucosaminyltransferase 2 (B3GNT2, residues 34–397) (domain or fragment, UniProt Q9NY97 34-397, looked up)
chain: EKNGKGEVIIPKEKFWKISTPPEAYWNREQEKLNRQYNPILSMLTNQTGEAGRLSNISHLNYCEPDLRVTSVVTGFNNLPDRFKDFLLYLRCRNYSLLIDQPDKCAKKPFLLLAIKSLTPHFARRQAIRESWGQESNAGNQTVVRVFLLGQTPPEDNHPDLSDMLKFESEKHQDILMWNYRDTFFNLSLKEVLFLRWVSTSCPDTEFVFKGDDDVFVNTHHILNYLNSLSKTKAKDLFIGDVIHNAGPHRDKKLKYYIPEVVYSGLYPPYAGGGGFLYSGHLALRLYHITDQVHLYPIDDVYTGMCLQKLGLVPEKHKGFRTFDIEEKNKNNICSYVDLMLVHSRKPQEMIDIWSQLQSAHLKC
modifications: N-glycans cut by EndoF1, leaving only a single GlcNAc residue attached to each Asn side chain (sequons N79, N89, N127, N173, N219); at Asn219 a Manβ1,4-GlcNAcβ1,4-GlcNAcβ- glycan is seen in the crystal structure
notes: also called B3GNT2 cat domain; B3GNT2 catalytic domain; source: HEK293S (GnTI-) cells, transient transfection, secreted; purified (Ni2+-NTA, TEV protease + EndoF1 cleavage, second Ni2+-NTA, Superdex 75); not shown: 8xHis, N-terminal, cleaved; AviTag, N-terminal, cleaved; superfolder GFP, N-terminal, cleaved
  stoichiometry N: 2
